Measured values taken from paper PMC11264168.
One block for each substance: values may come before it.

Tests used:
[1] = target: SyB-Cph1(GAF-PHY), the GAF-PHY fragment (photo-sensing module) of the PAS-less phytochrome SyB-Cph1, residues 1-421, assembled with phycocyanobilin, as Pr (Synechococcus sp. JA-2-3B'a(2-13)); experiment: SEC; Pr in darkness, 30 mM Tris-HCl (pH 8.0), Superdex 200 Increase 10/300 GL, 0.5 ml/min, gel filtration mass standards
[2] = target: SyB-Cph1(GAF-PHY) Arg111-Ala mutant (Synechococcus sp. JA-2-3B'a(2-13)); experiment: SEC; arginine-to-alanine mutants; data not shown
[3] = target: SyB-Cph1(GAF-PHY) Arg133-Ala mutant (Synechococcus sp. JA-2-3B'a(2-13)); experiment: SEC; arginine-to-alanine mutants; data not shown
[4] = target: SyB-Cph1(GAF-PHY) Arg101-Ala mutant (Synechococcus sp. JA-2-3B'a(2-13)); experiment: SEC; arginine-to-alanine mutants; data not shown

stoichiometry N [1]: 2
Substance: SyB-Cph1(GAF-PHY), the GAF-PHY fragment (photo-sensing module) of the PAS-less phytochrome SyB-Cph1, residues 1-421, assembled with phycocyanobilin, as Pr (domain or fragment)

stoichiometry N [2]: 2
Substance: SyB-Cph1(GAF-PHY) Arg111-Ala mutant (domain or fragment)

stoichiometry N [3]: 2
Substance: SyB-Cph1(GAF-PHY) Arg133-Ala mutant (domain or fragment)

stoichiometry N [4]: 2
Substance: SyB-Cph1(GAF-PHY) Arg101-Ala mutant (domain or fragment)
